Among the data in article PMC10033316 are oligomerisation values, retold here.

The nature of this data set: BS3 cross-linking, non-reducing SDS-PAGE, anti-Flag blot. The conditions noted are these: glycan changed form; control: K562/ADR cells (low GnT-III).

B1: TNF receptor 2 (TNFR2): GnT-III overexpression (protein)
parent chain: MAPVAVWAALAVGLELWAAAHALPAQVAFTPYAPEPGSTCRLREYYDQTAQMCCSKCSPGQHAKVFCTKTSDTVCDSCEDSTYTQLWNWVPECLSCGSRCSSDQVETQACTREQNRICTCRPGWYCALSKQEGCRLCAPLRKCRPGFGVARPGTETSDVVCKPCAPGTFSNTTSSTDICRPHQICNVVAIPGNASMDAVCTSTSPTRSMAPGAVHLPQPVSTRSQHTQPTPEPSTAPSTSFLLPMGPSPPAEGSTGDFALPVGLIVGVTALGLLIIGVVNCVIMTQVKKKPLCLQREAKVPHLPADKARGTQGPEQQHLLITAPSSSSSSLESSASALDRRAPTRNQPQAPGVEASGAGEARASTGSSDSSPGGHGTQVNVTCIVNVCSSSDHSSQCSSQASSTMGDTDSSPSESPKDEQVPFSKEECAFRSQLETPETLLGSTEEKPLPLGVPDAGMKPS
In the case of B1, the oligomerisation result is recorded as “decreases”.
